From publication PMC8902471

Legend:
Assay in all cases: EMSA
[1] = biological target: T1, Ets-1 ΔN301 MT2 (Mus musculus (murine), UniProt P27577 301-440, L393A;Y396A)
T1 sequence: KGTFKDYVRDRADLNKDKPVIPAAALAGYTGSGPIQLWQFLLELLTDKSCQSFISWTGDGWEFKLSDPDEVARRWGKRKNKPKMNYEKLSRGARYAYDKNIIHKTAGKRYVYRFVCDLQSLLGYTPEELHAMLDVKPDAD

[2] = biological target: T2, Ets-1 ΔN301 MT1 (Mus musculus (murine), UniProt P27577 301-440, L337A;W338A)
T2 sequence: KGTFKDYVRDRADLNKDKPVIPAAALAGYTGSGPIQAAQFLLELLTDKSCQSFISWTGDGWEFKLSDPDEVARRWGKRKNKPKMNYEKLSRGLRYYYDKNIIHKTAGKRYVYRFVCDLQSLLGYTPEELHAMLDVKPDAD

[3] = biological target: T3, Ets-1 ΔN301 MT4 (Mus musculus (murine), UniProt P27577 301-440, W338A)
T3 sequence: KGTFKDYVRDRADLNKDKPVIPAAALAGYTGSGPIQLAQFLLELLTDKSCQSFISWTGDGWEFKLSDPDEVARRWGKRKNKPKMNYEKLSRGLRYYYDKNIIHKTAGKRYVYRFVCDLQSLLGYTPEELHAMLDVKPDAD

[4] = biological target: T4, Ets-1 ΔN301 MT3 (Mus musculus (murine), UniProt P27577 301-440, L337A)
T4 sequence: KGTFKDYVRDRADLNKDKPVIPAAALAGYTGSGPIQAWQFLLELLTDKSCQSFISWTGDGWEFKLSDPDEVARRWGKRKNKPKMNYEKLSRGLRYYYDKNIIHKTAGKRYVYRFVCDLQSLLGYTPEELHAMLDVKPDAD

Measured: binding result

B1: 27-bp high-affinity ETS site DNA (dsDNA)
DNA 1: TCGACGGCCAAGCCGGAAGTGAGTGCC
DNA 2: TCGAGGCACTCACTTCCGGCTTGGCCG
no binding: [1] | [2] | [3] | [4]
